From US9670288B2, “Osteoprotegerin in neuroprotection” (Massachusetts Eye and Ear Infirmary, priority 2011, dated 2017)
Entries after “also recorded” stand apart in the source; their conditions may differ.

Tests used:
Type in all cases: cell-based, mice
ERK kinase [1] = test: H2O2 induced ERK kinase activation in cultured Schwann cells / SGCs (immunoblot, p-ERK); settings: opg −/− Schwann cells; pre-treatment 3 hours and co-treatment; OPG 100 ng/L, PD 98059 20 nM, zoledronate 10 μM; 500 μM H2O2
ERK kinase [2] = test: TRAIL induced ERK phosphorylation in cultured Schwann cells (immunoblot); settings: for TRAIL induced ERK phosphorylation / ERK activation: opg −/− Schwann cells, pretreatment, TRAIL 100 ng/ml, OPG 100 ng/l, PD98059 20 nM, zoledronate 10 μM
Schwann cells = test: TRAIL induced cell death (cleaved caspase 3) in cultured Schwann cells; settings: for TRAIL induced cleaved caspase 3 (cell death): opg −/− Schwann cells, pretreatment, TRAIL 100 ng/ml, OPG 100 ng/l, PD98059 20 nM, zoledronate 10 μM
[3] = test system: spiral ganglion cells (SGCs) / Schwann cells; test: H2O2 induced oxidative cell death of cultured spiral ganglion cells (nuclear condensation, Hoechst 33342); settings: for H2O2 induced oxidative cell death: opg −/− SGCs/Schwann cells, pretreatment followed by co-treatment, OPG 100 ng/L, PD 98059 20 nM, zoledronate 10 μM, 500 μM H2O2
opg −/− spheres [4] = test: Proliferation of floating spiral ganglion spheres (BrdU staining); settings: third generation opg −/− spheres, Rankl 100 ng/ml, OPG 100 ng/ml, zoledronate 1 μM, 3 days, passaged
Method: For each experiment, spiral ganglia of four to six 1-3 day old WT or opg −/− mice were dissected in HBSS. The SGCs (neurons and glia) were dissociated using trypsin (0.25%) for 13 min in PBS at 37° C. The enzymatic digestion was stopped by adding 10% FBS in DMEM-high glucose medium. The tissue was washed twice and gently triturated. The cell suspension was passed through a 70 μm cell strainer (BD Labware). Single cells were cultured in DMEM-high glucose and F12 (mixed 1:1) supplemented with N2 and B27 (Invitrogen), EGF (20 ng/mL; Chemicon), bFGF (10 ng/mL; Chemicon), IGF-1 (50 ng/mL; Chemicon), and heparan sulfate (50 ng/mL; Sigma). Newly formed spheres were cultured in ultra-low-cluster plates (Costar) for 4 days and were termed first generation spheres. Spheres were subsequently passaged every 4 days until the third generation, when 5-10 spheres were collected and dissociated (Oshima K, Grimm C M, Corrales C E, Senn P, Martinez Monedero R, Géléoc GS, Edge A, Holt J R, Heller S. 2007. J Assoc Res Otolaryngol. 2007; 8:18-31). Spheres were passaged at a clonal level for 3 more times. Before each passage, the sphere morphology was assessed and the spheres were counted using the Metamorph counting software. At the third generation, spiral ganglion spheres from WT and opg −/− mice were separated into 4 groups and treated with Rankl (100 ng/ml), OPG (100 ng/ml) or zoledronate (1 μM). […]

opg −/− spheres [5] = test: Apoptosis in floating spiral ganglion spheres (cleaved caspase 3 staining); settings: third generation opg −/− spheres, Rankl 100 ng/ml, OPG 100 ng/ml, zoledronate 1 μM, 3 days, passaged
Method: For each experiment, spiral ganglia of four to six 1-3 day old WT or opg −/− mice were dissected in HBSS. The SGCs (neurons and glia) were dissociated using trypsin (0.25%) for 13 min in PBS at 37° C. The enzymatic digestion was stopped by adding 10% FBS in DMEM-high glucose medium. The tissue was washed twice and gently triturated. The cell suspension was passed through a 70 μm cell strainer (BD Labware). Single cells were cultured in DMEM-high glucose and F12 (mixed 1:1) supplemented with N2 and B27 (Invitrogen), EGF (20 ng/mL; Chemicon), bFGF (10 ng/mL; Chemicon), IGF-1 (50 ng/mL; Chemicon), and heparan sulfate (50 ng/mL; Sigma). Newly formed spheres were cultured in ultra-low-cluster plates (Costar) for 4 days and were termed first generation spheres. Spheres were subsequently passaged every 4 days until the third generation, when 5-10 spheres were collected and dissociated (Oshima K, Grimm C M, Corrales C E, Senn P, Martinez Monedero R, Géléoc GS, Edge A, Holt J R, Heller S. 2007. J Assoc Res Otolaryngol. 2007; 8:18-31). Spheres were passaged at a clonal level for 3 more times. Before each passage, the sphere morphology was assessed and the spheres were counted using the Metamorph counting software. At the third generation, spiral ganglion spheres from WT and opg −/− mice were separated into 4 groups and treated with Rankl (100 ng/ml), OPG (100 ng/ml) or zoledronate (1 μM). The control group was untreated. After 3 days of treatment, the spheres were passaged and treated again for 3 days. Twelve hours before plating, proliferating cells in the spheres were labeled with BrdU (3 μg/ml). After 12 hours, the spheres were plated for 1 hour on poly-L-lysine (0.01%, Cultrex)-coated glass coverslips (Marienfeld GmbH, Germany), fixed in 4% paraformaldehyde for 10 min, treated with 1N HCl for antigen retrieval for BrdU staining, incubated for 1 hour in blocking solution (0.3% Triton, 15% goat serum in 1×PBS), and incubated overnight with either anti-cleaved caspase3 antibody to assess cell death, or anti-BrdU antibody to assess cell proliferation. After 3 washing steps with 1×PBS, the spheres were incubated in secondary antibody for 2 hours (568 Alexa Fluor anti rat or anti mouse). Nuclei were stained with DAPI. Staining was visualized by epifluorescence microscopy (Axioskop 2 Mot Axiocam, Zeiss). Counting was done with the Metamorph software.

p38, JNK or NF-κB p65 = test: p38, JNK and NF-κB p65 activity after TRAIL in cultured Schwann cells (immunoblot); settings: opg −/− Schwann cells treated with TRAIL

| Molecule | H2O2 induced ERK kinase activation (ERK kinase [1]) | TRAIL induced ERK phosphorylation / ERK activation (ERK kinase [2]) | TRAIL induced cleaved caspase 3 (cell death) (Schwann cells) | H2O2 induced oxidative cell death [3] | proliferation of opg−/− spheres (number of BrdU positive cells) (opg −/− spheres [4]) | apoptosis in opg−/− spheres (number of cleaved caspase 3 positive cells) (opg −/− spheres [5]) | p38, JNK or NF-κB p65 activity after TRAIL (p38, JNK or NF-κB p65) | ERK phosphorylation caused by TRAIL itself (ERK kinase [2]; cells treated with TRAIL (100 ng/ml)) | cleavage of caspase 3 / cell death caused by TRAIL itself (Schwann cells; Schwann cells treated with recombinant TRAIL (100 ng/ml)) | apoptosis in opg−/− spheres (number of cleaved caspase 3 positive cells) (opg −/− spheres [5]; listed as Rankl) | cell death without H2O2 treatment ([3]; opg −/− SGCs, no H2O2) |
| --- | --- | --- | --- | --- | --- | --- | --- | --- | --- | --- | --- |
| COc1cccc(-c2cc(=O)c3ccccc3o2)c1N [PD 98059, reference compound] | suppressed | suppressed | suppressed | rescued |  |  |  |  |  |  |  |
| O=P(O)(O)C(O)(Cn1ccnc1)P(=O)(O)O [zoledronate, reference compound] | suppressed | suppressed | suppressed | rescued | significantly enhanced; also recorded: increased | reduced; also recorded: decreased |  |  |  |  |  |
| TRAIL: TNF-related apoptosis-inducing ligand, recombinant (protein, UniProt P50591 1-281, looked up) Tumor necrosis factor ligand …: MAMMEVQGGPSLGQTCVLIVIFTVLLQSLCVAVTYVYFTNELKQMQDKYSKSGIACFLKEDDSYWDPNDEESMNSPCWQVKWQLRQLVRKMILRTSEETISTVQEKQQNISPLVRERGPQRVAAHITGTRGRSNTLSSPNSKNEKALGRKINSWESSRSGHSFLSNLHLRNGELVIHEKGFYYIYSQTYFRFQEEIKENTKNDKQMVQYIYKYTSYPDPILLMKSARNSCWSKDAEYGLYSIYQGGIFELKENDRIFVSVTNEHLIDMDHEASFFGAFLVG |  |  |  |  |  |  | did not affect | activated | increased; also recorded: induced cell death |  |  |
| RANKL: RANK ligand, from R & D Systems (protein, UniProt O14788 140-317, looked up) Tumor necrosis factor ligand …: IRAEKAMVDGSWLDLAKRSKLEAQPFAHLTINATDIPSGSHKVSLSSWYHDRGWAKISNMTFSNGKLIVNQDGFYYLYANICFRHHETSGDLATEYLQLMVYVTKTSIKIPSSHTLMKGGSTKYWSGNSEFHFYSINVGGFFKLRSGEEISIEVSNPSLLDPDQDATYFGAFKVRDID |  |  |  |  |  | significantly increased |  |  |  | increased |  |
| OPG: Osteoprotegerin, cytokine receptor of the TNF receptor superfamily; recombinant protein from R & D Systems (protein, homo sapiens OPG, Osteoprotegerin, cytokine receptor of the TNF receptor superfamily; recombinant protein from R & D Systems) MNNLLCCALVFLDISIKWTTQETFPPKYLHYDEETSHQLLCDKCPPGTYLKQHCTAKWKTVCAPCPDHYYTDSWHTSDECLYCSPVCKELQYVKQECNRTHNRVCECKEGRYLEIEFCLKHRSCPPGFGVVQAGTPERNTVCKRCPDGFFSNETSSKAPCRKHTNCSVFGLLLTQKGNATHDNICSGNSESTQKCGIDVTLCEEAFFRFAVPTKFTPNWLSVLVDNLPGTKVNAESVERIKRQHSSQEQTFQLLKLWKHQNKDQDIVKKIIQDIDLCENSVQRHIGHANLTFEQLRSLMESLPGKKVGAEDIEKTIKACKPSDQILKLLSLWRIKNGDQDTLKGLMHALKHSKTYHFPKTVTQSLKKTIRFLHSFTMYKLYQKLFLEMIGNQVQSVKISCL | suppressed | suppressed | suppressed | rescued | significantly enhanced; also recorded: increased | reduced; also recorded: decreased |  |  |  |  | did not significantly affect |
